The source of these data is the supplement of paper PMC7877785.

± gives the uncertainty stated by the source.

The nature of the data set: self-splicing fitness, log relative to wild type (ln ratio); higher = more splicing; Tetrahymena group I intron in knt gene, E. coli kanamycin selection, DiMSum; sequences stand for … in CUCUCU…GGAGGGAAAAGUUAUCAGGCAUGCACCUGGUAGCUAGUCUUUAAACCAAUAGAUUGCAUCGGUUUAAAAGGCAAGACCGUCAAAUUGCGGGAAAGGGGUCAACAGCCGUUCAGUACCAAGUCUCAGGGGAAACUUUGAGAUGGCCUUGCAAAGGGUAUGGUAAUAAGCUGACGGACAUGGUCCUAACCACGCAGCCAAGUCCUAAGUCAACAGAUCUUCUGUUGAUAUGGAUGCAGUUCACAGACUAAAUGUCGGUCGGGGAAGAUGUAUUCUUCUCAUAAGAUAUAGUCGGACCUCUCCUUAAUGGGAGCUAGCGGAUGAAGUGAUGCAACACUGGAGCCGCUGGGAACUAAUUUGUAUGCGAAAGUAUAUUGAUUAGUUUUGGAGUACUCGUGGUCG
The method in brief:
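A randomised library covering all eight P1ex-region intron nucleotides was built with the intron in the knt kanamycin-resistance gene on pET-22b(+) and held in E. coli BL21(DE3). Cells were grown overnight at 37°C or 30°C on LB agar, with or without 25 μg/mL kanamycin, plus 100 μg/mL carbenicillin, 50 μM IPTG and 0.2% rhamnose, and pooled colonies were amplicon-sequenced on an Illumina HiSeq 2500. DiMSum fitness is the error-weighted combination of wild-type-normalised replicate fold changes, kanamycin versus none.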

With UCCGAGCAAUAUUACGGGGG, the “self-splicing fitness (ln)” value is, setting by setting: (30 °C) -4.27 ± 0.33; (37 °C) -2.47 ± 0.22.
On the same counts, the results for UCCGAGCAAUAUUACGGGUA are -1.06 ± 0.13 and -0.229 ± 0.096.
For UCCGAGCAAUAUUACGGGUC, where the note is “37 °C”, the “self-splicing fitness (ln)” value was -2.45 ± 0.26.
On to UCCGAGCAAUAUUACGGUGG, for which the “self-splicing fitness (ln)” value reads like this: (30 °C) -2.76 ± 0.14; (37 °C) -2.31 ± 0.2.
In the same order, the values of UCCGAGCAAUAUUACGUAGU are -2.97 ± 0.16 and -2.71 ± 0.18.
In the case of UCCGAGCAAUAUUACGUCCG, the “self-splicing fitness (ln)” value (30 °C) is -2.24 ± 0.24.
Still for that read-out and setting: under UCCUAGCAAUAUUACGACAC stands -0.225 ± 0.29.
For UCCUAGCAAUAUUACGACCU, the “self-splicing fitness (ln)” value runs as follows: (30 °C) -3.41 ± 0.48; (37 °C) -1.76 ± 0.31.
As for UCCUAGCAAUAUUACGAUAG, the “self-splicing fitness (ln)” value is -2.89 ± 0.33 (30 °C) and -2.14 ± 0.35 (37 °C).
Take UCCUAGCAAUAUUACGAUGC: the “self-splicing fitness (ln)” value reads like this: (30 °C) -2.85 ± 0.21; (37 °C) -2.7 ± 0.29.
Consider UCCUAGCAAUAUUACGAUUG, for which the “self-splicing fitness (ln)” value reads like this: (30 °C) -2.56 ± 0.24; (37 °C) -2.49 ± 0.45.
Take UCCUAGCAAUAUUACGCAGU: the “self-splicing fitness (ln)” value was -3.03 ± 0.15 (30 °C) and -2.54 ± 0.2 (37 °C).
In the same order, the values of UCCUAGCAAUAUUACGCGAC are -3.46 ± 0.32 and -1.49 ± 0.31.
In the same order, the values of UCCUAGCAAUAUUACGCUCC are -3.73 ± 0.33 and -0.747 ± 0.24.
In the same order, the values of UCCUAGCAAUAUUACGCUGA are -1.02 ± 0.11 and -0.876 ± 0.12.
On to UCCUAGCAAUAUUACGGCAA, for which the “self-splicing fitness (ln)” value was -2.22 ± 0.2 (30 °C) and -1.95 ± 0.19 (37 °C).
On the same counts, the results for UCCUAGCAAUAUUACGGCCU are -2.37 ± 0.34 and -2.29 ± 0.37.
UCCUAGCAAUAUUACGGCUC: the “self-splicing fitness (ln)” value (37 °C) is -1.62 ± 0.44.
Take UCCUAGCAAUAUUACGGGGA: the “self-splicing fitness (ln)” value runs as follows: (30 °C) -2.59 ± 0.24; (37 °C) -1.59 ± 0.21.
In the same order, the values of UCCUAGCAAUAUUACGGGGC are -3.1 ± 0.23 and -2.77 ± 0.32.
In the same order, the values of UCCUAGCAAUAUUACGGGGG are -3.69 ± 0.18 and -2.59 ± 0.27.
On the same counts, the results for UCCUAGCAAUAUUACGGUAC are -3.79 ± 0.26 and -3.32 ± 0.47.
UCCUAGCAAUAUUACGGUCG: the “self-splicing fitness (ln)” value is -1.69 ± 0.14 (30 °C) and -1.59 ± 0.17 (37 °C).
In the same order, the values of UCCUAGCAAUAUUACGUAGA are -2.36 ± 0.05 and -0.729 ± 0.069.
In the same order, the values of UCCUAGCAAUAUUACGUAGG are -3.58 ± 0.19 and -2.21 ± 0.26.
On the same counts, the results for UCCUAGCAAUAUUACGUCAC are -1.97 ± 0.2 and -2.6 ± 0.27.
On to UCCUAGCAAUAUUACGUCAG, for which the “self-splicing fitness (ln)” value by setting is: (30 °C) -3.38 ± 0.29; (37 °C) -2.41 ± 0.37.
In the same order, the values of UCCUAGCAAUAUUACGUCCA are -3.15 ± 0.48 and -1.56 ± 0.34.
In the same order, the values of UCCUAGCAAUAUUACGUGAU are -3.3 ± 0.28 and -1.9 ± 0.24.
On the same counts, the results for UCCUAGCAAUAUUACGUGGG are -3.24 ± 0.15 and -2.5 ± 0.2.
For UCCUAGCAAUAUUACGUGUA, the “self-splicing fitness (ln)” value (30 °C) was -2.28 ± 0.18 and the “self-splicing fitness (ln)” value (37 °C) is -1.09 ± 0.12.
As for UCCUAGCAAUAUUACGUUAU, the “self-splicing fitness (ln)” value by setting is: (30 °C) -2.99 ± 0.19; (37 °C) -2.59 ± 0.24.
On the same counts, the results for UCCUAGCAAUAUUACGUUCG are -1.03 ± 0.16 and -2.28 ± 0.28.
On the same counts, the results for UCCUAGCAAUAUUACGUUUG are -3.11 ± 0.17 and -3.36 ± 0.26.
In the same order, the values of UCGAAGCAAUAUUACGAAAG are -3.24 ± 0.23 and -2.47 ± 0.44.
For UCGAAGCAAUAUUACGAACA, the “self-splicing fitness (ln)” value is -0.799 ± 0.12 (30 °C) and -0.112 ± 0.14 (37 °C).
In the same order, the values of UCGAAGCAAUAUUACGAACG are -1.82 ± 0.13 and -0.935 ± 0.14.
On the same counts, the results for UCGAAGCAAUAUUACGAAGU are -4.55 ± 0.32 and -1.43 ± 0.19.
Take UCGAAGCAAUAUUACGAGAC: the “self-splicing fitness (ln)” value (30 °C) was -3.11 ± 0.22.
For UCGAAGCAAUAUUACGAUGU, the “self-splicing fitness (ln)” value reads like this: (30 °C) -1.82 ± 0.067; (37 °C) -0.546 ± 0.085.
On the same counts, the results for UCGAAGCAAUAUUACGCCAA are -2.4 ± 0.27 and -2.2 ± 0.37.
With UCGAAGCAAUAUUACGCUAC, the “self-splicing fitness (ln)” value (30 °C) was -2.18 ± 0.26.
For UCGAAGCAAUAUUACGGCAU, the “self-splicing fitness (ln)” value runs as follows: (30 °C) -3.26 ± 0.2; (37 °C) -1.62 ± 0.24.
On the same counts, the results for UCGAAGCAAUAUUACGGCGG are -1.14 ± 0.11 and -0.364 ± 0.17.
On the same counts, the results for UCGAAGCAAUAUUACGGGGG are -1.86 ± 0.18 and -1.39 ± 0.2.
In the same order, the values of UCGAAGCAAUAUUACGGGGU are -4.05 ± 0.21 and -2.25 ± 0.17.
As to UCGAAGCAAUAUUACGGGUA, the “self-splicing fitness (ln)” value was -0.839 ± 0.062 (30 °C) and -0.123 ± 0.068 (37 °C).
Turning to UCGAAGCAAUAUUACGGUGG, the “self-splicing fitness (ln)” value is -1.82 ± 0.094 (30 °C) and -1.55 ± 0.14 (37 °C).
With UCGAAGCAAUAUUACGUAGC, the “self-splicing fitness (ln)” value (37 °C) was -2.17 ± 0.31.
In the case of UCGAAGCAAUAUUACGUCGA, the “self-splicing fitness (ln)” value runs as follows: (30 °C) -3.65 ± 0.47; (37 °C) -1.78 ± 0.19.
On the same counts, the results for UCGAAGCAAUAUUACGUUGA are -2.05 ± 0.099 and -2.63 ± 0.13.
UCGCAGCAAUAUUACGAAAC: the “self-splicing fitness (ln)” value (37 °C) is -3.1 ± 0.35.
Consider UCGCAGCAAUAUUACGAACU, for which the “self-splicing fitness (ln)” value (30 °C) was -3.13 ± 0.19 and the “self-splicing fitness (ln)” value (37 °C) was -1.69 ± 0.17.
In the same order, the values of UCGCAGCAAUAUUACGAAGC are -3.52 ± 0.27 and -2.25 ± 0.25.
UCGCAGCAAUAUUACGACGG: the “self-splicing fitness (ln)” value is -1.15 ± 0.069 (30 °C) and -0.0065 ± 0.1 (37 °C).
Turning to UCGCAGCAAUAUUACGACUG, the “self-splicing fitness (ln)” value is, setting by setting: (30 °C) -1.93 ± 0.14; (37 °C) -2.7 ± 0.25.
On the same counts, the results for UCGCAGCAAUAUUACGAGAA are -1.41 ± 0.34 and -0.949 ± 0.21.
For UCGCAGCAAUAUUACGAUAU, the “self-splicing fitness (ln)” value (30 °C) is -3.68 ± 0.3 and the “self-splicing fitness (ln)” value (37 °C) is -2.41 ± 0.27.
In the same order, the values of UCGCAGCAAUAUUACGCGAG are -2.85 ± 0.15 and -2.56 ± 0.15.
On the same counts, the results for UCGCAGCAAUAUUACGCUUU are -3.69 ± 0.18 and -1.84 ± 0.13.
In the same order, the values of UCGCAGCAAUAUUACGGCUG are -3.46 ± 0.24 and -2.45 ± 0.32.
On to UCGCAGCAAUAUUACGUCCA, for which the “self-splicing fitness (ln)” value was -0.754 ± 0.086 (30 °C) and -0.0511 ± 0.094 (37 °C).
On the same counts, the results for UCGCAGCAAUAUUACGUGAC are -5.1 ± 0.38 and -2.41 ± 0.26.
In the same order, the values of UCGCAGCAAUAUUACGUUGA are -3.11 ± 0.23 and -1.06 ± 0.14.
Regarding UCGGAGCAAUAUUACGAUCG, the “self-splicing fitness (ln)” value is -1.22 ± 0.15 (30 °C) and -0.115 ± 0.15 (37 °C).
On the same counts, the results for UCGGAGCAAUAUUACGCAUG are -3.6 ± 0.22 and -1.38 ± 0.17.
Turning to UCGGAGCAAUAUUACGCCGA, the “self-splicing fitness (ln)” value (30 °C) was -3.12 ± 0.32.
With UCGGAGCAAUAUUACGCUUU, the “self-splicing fitness (ln)” value (37 °C) was -2.3 ± 0.49.
As to UCGGAGCAAUAUUACGGAUA, the “self-splicing fitness (ln)” value reads like this: (30 °C) -2.51 ± 0.35; (37 °C) -1.96 ± 0.29.
UCGGAGCAAUAUUACGGAUC: where the note is “30 °C”, the “self-splicing fitness (ln)” value is -3.21 ± 0.43.
Take UCGGAGCAAUAUUACGGUAG: the “self-splicing fitness (ln)” value reads like this: (30 °C) -3.8 ± 0.35; (37 °C) -2.8 ± 0.28.
In the same order, the values of UCGGAGCAAUAUUACGGUGU are -3.4 ± 0.31 and -1.7 ± 0.37.
On to UCGGAGCAAUAUUACGUACC, for which the “self-splicing fitness (ln)” value (30 °C) is -2.84 ± 0.48.
Turning to UCGGAGCAAUAUUACGUCAC, the “self-splicing fitness (ln)” value by setting is: (30 °C) -3.68 ± 0.43; (37 °C) -2.68 ± 0.36.
In the case of UCGGAGCAAUAUUACGUCAG, the “self-splicing fitness (ln)” value (37 °C) is -1.11 ± 0.34.
As for UCGGAGCAAUAUUACGUCUG, the “self-splicing fitness (ln)” value is, setting by setting: (30 °C) -2.56 ± 0.19; (37 °C) -0.878 ± 0.24.
On the same counts, the results for UCGGAGCAAUAUUACGUGCG are -2.06 ± 0.093 and -1.32 ± 0.11.
On to UCGGAGCAAUAUUACGUUAC, for which, under “30 °C”, the “self-splicing fitness (ln)” value was -1.87 ± 0.3.
Take UCGGAGCAAUAUUACGUUGA: the “self-splicing fitness (ln)” value runs as follows: (30 °C) -2.58 ± 0.25; (37 °C) -1.22 ± 0.16.
UCGGAGCAAUAUUACGUUUU: the “self-splicing fitness (ln)” value (30 °C) was -3.91 ± 0.4.
